Paper PMC5062937, “Aadh2p: an Arxula adeninivorans alcohol dehydrogenase involved in the first step of the 1-butanol degradation pathway” (Microbial Cell Factories, 2016)

How the values were obtained:
Assay in all cases: purified protein
Assay type in all cases: biochemical, Blastobotrys adeninivorans
[1] = test system: T1, NC(=O)C1=CN([C@@H]2O[C@H](COP(=O)(O)OP(=O)(O)OC[C@H]3O[C@@H](n4cnc5c(N)ncnc54)[C@H](O)[C@@H]3O)[C@@H](O)[C@H]2O)C=CC1; details: reduction, 20 mM acetaldehyde, 50 mM sodium phosphate pH 7.5, 30 °C, pH 7.5, varied: cofactor
T1 construct: full length, N-terminal His6 tag (MHHHHHH then VPSPDI), expressed in A. adeninivorans G1212/YIC102-6H-AADH2, Ni-NTA purified; ORF 1068 bp, 356 residues printed; native 88 kDa, dimer

[2] = test system: T2, CCCCO; details: oxidation, 1 mM NAD+, 50 mM Tris-HCl pH 9.0, 30 °C, pH 9.0
T2 construct: full length, N-terminal His6 tag (MHHHHHH then VPSPDI), expressed in A. adeninivorans G1212/YIC102-6H-AADH2, Ni-NTA purified; ORF 1068 bp, 356 residues printed; native 88 kDa, dimer

[3] = test system: T3, CCCC=O; details: reduction, 0.4 mM NADH, 50 mM sodium phosphate pH 7.5, 30 °C, pH 7.5
T3 construct: full length, N-terminal His6 tag (MHHHHHH then VPSPDI), expressed in A. adeninivorans G1212/YIC102-6H-AADH2, Ni-NTA purified; ORF 1068 bp, 356 residues printed; native 88 kDa, dimer

[4] = test system: T4, CC=O; details: reduction, 0.8 mM NADH, 50 mM sodium phosphate pH 7.5, 30 °C, pH 7.5
T4 construct: full length, N-terminal His6 tag (MHHHHHH then VPSPDI), expressed in A. adeninivorans G1212/YIC102-6H-AADH2, Ni-NTA purified; ORF 1068 bp, 356 residues printed; native 88 kDa, dimer

[5] = test system: T5, NC(=O)c1ccc[n+]([C@@H]2O[C@H](COP(=O)(O)OP(=O)(O)OC[C@H]3O[C@@H](n4cnc5c(N)ncnc54)[C@H](O)[C@@H]3O)[C@@H](O)[C@H]2O)c1; details: oxidation, 100 mM ethanol, 50 mM Tris-HCl pH 9.0, 30 °C, pH 9.0, varied: cofactor
T5 construct: full length, N-terminal His6 tag (MHHHHHH then VPSPDI), expressed in A. adeninivorans G1212/YIC102-6H-AADH2, Ni-NTA purified; ORF 1068 bp, 356 residues printed; native 88 kDa, dimer

Q: Which results are given for 6h-Aadh2p (Blastobotrys adeninivorans)?
A: Km [1]: 70 µM; kcat [1]: 14.7 s⁻¹; kcat/Km [1]: 224000 M⁻¹ s⁻¹; Km [2]: 300 µM; kcat [2]: 1310 s⁻¹; kcat/Km [2]: 4.37e+06 M⁻¹ s⁻¹; Km [3]: 500 µM; kcat [3]: 11900 s⁻¹; kcat/Km [3]: 2.37e+07 M⁻¹ s⁻¹; Km [4]: 26500 µM; kcat [4]: 15.2 s⁻¹; kcat/Km [4]: 600 M⁻¹ s⁻¹; Km [5]: 500 µM; kcat [5]: 2.2 s⁻¹; kcat/Km [5]: 4000 M⁻¹ s⁻¹
